Results on twelve molecules are retold here after patent publication US20180057604A1 (Genentech, published 2018).

Where two headings read alike, the source gives them in different places.

In assay [1] the target is T1, murine BACE1 ECD.
T1 construct: analyte of the Octet assay (200 nM) and enzyme of the first short substrate assay
Description: Octet, pH 7.5.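 Also: antibodies captured on anti-human capture sensor tips, dissociation monitored in PBS with BSA, Kd obtained from kinetic fit to a one-to-one binding model.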

The target of assay [2] is T2, human BACE1 ECD.
T2 construct: analyte of the Octet assay (200 nM) and enzyme of the first short substrate assay; also called human BACE1 extracellular domain
Description: Octet, pH 7.5.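 Also: antibodies captured on anti-human capture sensor tips, dissociation monitored in PBS with BSA, Kd obtained from kinetic fit to a one-to-one binding model.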

For assay [3], the target named is T1, murine BACE1 ECD. Description: Octet, pH 5.0.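 Also: antibodies captured on anti-human capture sensor tips, dissociation monitored in PBS with BSA buffer, kinetics fitted with a one-to-one binding model.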
The target of assay [4] is T2, human BACE1 ECD. Description: Octet, pH 5.0.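 Also: antibodies captured on anti-human capture sensor tips, dissociation monitored in PBS with BSA buffer, kinetics fitted with a one-to-one binding model.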
In assay [5] the target is T3, BACE1 in primary mouse cortical neurons (mouse, UniProt P56818 46-501). Description: cell-based or functional assay.
Assay [6] has as its target T4, cyno TfR extracellular domain (analogous construct to human TfR ecd) (cynomolgus monkey, UniProt Q5RDH6 87-760 (Pongo abelii entry)).
T4 construct: also called cynoTfR ecd
T4 chain: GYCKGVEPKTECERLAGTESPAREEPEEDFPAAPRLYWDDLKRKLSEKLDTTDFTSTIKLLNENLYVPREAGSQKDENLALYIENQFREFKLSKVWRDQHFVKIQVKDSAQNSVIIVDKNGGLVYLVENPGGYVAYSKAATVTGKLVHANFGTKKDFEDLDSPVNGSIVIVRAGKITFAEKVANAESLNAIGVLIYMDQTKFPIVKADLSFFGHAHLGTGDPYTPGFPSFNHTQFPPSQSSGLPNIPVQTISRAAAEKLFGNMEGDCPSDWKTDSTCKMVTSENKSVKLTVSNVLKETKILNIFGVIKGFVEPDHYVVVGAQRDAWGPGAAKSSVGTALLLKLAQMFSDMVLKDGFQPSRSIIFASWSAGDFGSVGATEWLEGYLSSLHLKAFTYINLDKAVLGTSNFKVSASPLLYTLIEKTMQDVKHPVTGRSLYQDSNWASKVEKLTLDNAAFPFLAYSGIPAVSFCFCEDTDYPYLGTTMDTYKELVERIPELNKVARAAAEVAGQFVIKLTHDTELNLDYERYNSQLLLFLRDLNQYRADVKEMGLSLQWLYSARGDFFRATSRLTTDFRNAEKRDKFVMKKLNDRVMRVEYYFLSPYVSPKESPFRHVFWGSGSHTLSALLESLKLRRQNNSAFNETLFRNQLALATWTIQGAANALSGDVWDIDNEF
Description: SPR, TfR captured by anti-His, Fab injected.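 Also: single cycle kinetics with a Fab dilution series, fitted by a one-to-one Langmuir model or a steady state model, KD taken as koff over kon.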

For assay [7], the target named is T5, human TfR extracellular domain with N-terminal His tag (human, UniProt P02786 89-760).
T5 construct: Biotinylated in some assays; also called huTfR; HuTfR
Description: SPR, TfR captured by anti-His, Fab injected.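 Also: single cycle kinetics with a Fab dilution series, fitted by a one-to-one Langmuir model or a steady state model, KD taken as koff over kon.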

The target in assay [8] is BACE1 (HTRF long substrate and FRET short substrate assays of Example 9D). Description: cell-based or functional assay.
Assay [9] concerns the target T3, BACE1 in primary mouse cortical neurons. Description: cell-based or functional assay. This is another data set of the same source.

T1 sequence (single chain, as listed by the source limits assumed): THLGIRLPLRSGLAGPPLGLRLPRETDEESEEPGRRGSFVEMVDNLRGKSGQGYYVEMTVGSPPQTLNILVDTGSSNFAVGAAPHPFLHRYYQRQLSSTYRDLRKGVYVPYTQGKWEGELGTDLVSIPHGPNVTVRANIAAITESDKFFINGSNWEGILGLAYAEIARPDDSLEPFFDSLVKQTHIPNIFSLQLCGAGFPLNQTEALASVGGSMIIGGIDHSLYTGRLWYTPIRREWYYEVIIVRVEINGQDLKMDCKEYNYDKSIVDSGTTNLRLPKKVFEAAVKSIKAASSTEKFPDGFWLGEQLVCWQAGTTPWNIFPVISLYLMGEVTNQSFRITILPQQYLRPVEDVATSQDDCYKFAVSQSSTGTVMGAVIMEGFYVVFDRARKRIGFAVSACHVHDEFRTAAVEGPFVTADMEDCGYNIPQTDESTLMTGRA
T5 sequence (P02786 89-760 G142S): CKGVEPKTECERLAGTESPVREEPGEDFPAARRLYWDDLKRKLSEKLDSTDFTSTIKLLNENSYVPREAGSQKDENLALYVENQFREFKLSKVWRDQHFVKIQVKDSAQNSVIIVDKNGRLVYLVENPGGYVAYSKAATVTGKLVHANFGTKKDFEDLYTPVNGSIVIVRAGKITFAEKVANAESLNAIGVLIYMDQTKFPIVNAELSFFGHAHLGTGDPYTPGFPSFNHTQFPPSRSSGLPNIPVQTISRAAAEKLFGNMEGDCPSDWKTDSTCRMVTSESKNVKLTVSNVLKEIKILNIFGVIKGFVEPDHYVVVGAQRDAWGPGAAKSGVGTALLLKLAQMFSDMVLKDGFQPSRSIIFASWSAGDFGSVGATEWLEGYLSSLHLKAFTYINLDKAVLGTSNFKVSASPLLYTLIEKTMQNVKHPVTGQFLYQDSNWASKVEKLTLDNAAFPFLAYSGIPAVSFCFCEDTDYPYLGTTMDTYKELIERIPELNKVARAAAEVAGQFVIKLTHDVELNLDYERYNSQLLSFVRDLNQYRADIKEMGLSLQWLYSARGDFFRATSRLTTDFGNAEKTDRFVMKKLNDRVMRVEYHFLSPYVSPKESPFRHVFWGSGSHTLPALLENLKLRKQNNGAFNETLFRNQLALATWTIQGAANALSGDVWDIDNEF
T3 sequence (P56818 46-501): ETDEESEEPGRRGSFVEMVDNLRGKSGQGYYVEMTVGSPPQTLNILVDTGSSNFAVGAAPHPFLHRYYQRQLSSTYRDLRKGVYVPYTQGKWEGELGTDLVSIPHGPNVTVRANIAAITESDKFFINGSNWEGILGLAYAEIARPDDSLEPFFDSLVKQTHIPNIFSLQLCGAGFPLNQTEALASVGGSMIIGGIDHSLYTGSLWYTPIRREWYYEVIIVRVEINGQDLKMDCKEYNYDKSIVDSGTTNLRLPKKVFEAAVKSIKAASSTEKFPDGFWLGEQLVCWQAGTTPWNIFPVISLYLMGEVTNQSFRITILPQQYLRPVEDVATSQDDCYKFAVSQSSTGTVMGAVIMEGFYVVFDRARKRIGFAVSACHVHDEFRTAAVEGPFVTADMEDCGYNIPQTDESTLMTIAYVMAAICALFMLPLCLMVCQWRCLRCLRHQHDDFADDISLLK
T2 sequence (single chain, as listed by the source limits assumed): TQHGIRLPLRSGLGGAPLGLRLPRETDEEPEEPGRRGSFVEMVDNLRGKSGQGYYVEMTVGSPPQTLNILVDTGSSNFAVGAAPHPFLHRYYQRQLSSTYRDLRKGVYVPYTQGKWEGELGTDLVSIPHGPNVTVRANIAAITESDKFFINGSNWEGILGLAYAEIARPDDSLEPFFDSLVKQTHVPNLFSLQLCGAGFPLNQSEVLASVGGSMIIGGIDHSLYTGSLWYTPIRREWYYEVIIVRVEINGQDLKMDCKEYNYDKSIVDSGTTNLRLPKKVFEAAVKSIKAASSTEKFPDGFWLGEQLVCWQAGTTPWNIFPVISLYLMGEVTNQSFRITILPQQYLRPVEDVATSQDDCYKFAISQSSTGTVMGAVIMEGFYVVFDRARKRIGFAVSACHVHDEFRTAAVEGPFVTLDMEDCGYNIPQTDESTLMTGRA

B1: 6300 (antibody, V domains shown)
VH: QVQLVQSGAEVKKPGSSVKVSCKASGGTLSGYAISWVRQAPGQGLEWMGNIIPGFGTANYAQKSQGRVTITADESTSTAYMELSSLRSEDTAVYYCARSGGTRYGMLDVWGQGTMVTVSS
VL: EIVLTQSPATLSVSPGERATLSCRASQSVGSNLAWYQQKPGQAPRLLIYGASTRATGIPARFSGSGSGTEFTLTISSLQSEDFAVYYCQQSFLWPPRTFGGGTKVEIK
notes: anti-BACE1 IgG
B1: the Kd in assay [1] was below 0.68 nM; in [2] it was below 0.8 nM; in [3], below 0.4 nM; in [4] it was below 0.34 nM. The “IC50, Abeta x-40 in mouse cortical neurons” value in [5] amounted to 9.1 nM. In addition, the “maximal % inhibition of Abeta x-40” value in assay [5] was determined as 71%.

B2: Hu7A4.v9.Fab (Fab, V domains shown)
VH: EVQLVQSGAEVKKPGASVKVSCKASGYTFTDYAMHWVRQAPGQGLEWMGGISTYFGRTNYNQKFKGRVTMTRDTSISTAYMELSRLRSDDTAVYYCARGLSGNYVMDYWGQGTTVTVSS
VL: DIVMTQSPDSLAVSLGERATINCRASESVDSYGNSFMHWYQQKPGQPPKLLIYRASNLESGVPDRFSGSGSRTDFTLTISSLQAEDVAVYYCQQSNEGPPTFGQGTKLEIK
notes: Fab
In assay [6], B2 yielded a Kd of 4.23 nM, an off-rate (koff) of 0.00342 s⁻¹ and an on-rate constant (kon) of 808000 M⁻¹ s⁻¹. In assay [7], this molecule gave a Kd of 0.401 nM, a dissociation rate constant (koff) of 0.000686 s⁻¹ and an on-rate constant (kon) of 1.71e+06 M⁻¹ s⁻¹.

B3: Hu7A4.v12.Fab (Fab, V domains shown)
VH: EVQLVQSGAEVKKPGASVKVSCKGSGYTFTDYAMHWVRQAPGQGLEWMGGISTYFGRTNYNQKFKGRVTMTVDTSISTAYMELSRLRSDDTAVYYCARGLSGNYVMDYWGQGTTVTVSS
VL: DIVMTQSPDSLAVSLGERATINCRASESVDSYGNSFMHWYQQKPGQPPKLLIYRASNLESGVPDRFSGSGSRTDFTLTISSLQAEDVAVYYCQQSNEGPPTFGQGTKLEIK
notes: Fab
In assay [6], B3 yielded an equilibrium dissociation constant (Kd) of 1.9 nM, a koff of 0.00331 s⁻¹ and a kon of 1.74e+06 M⁻¹ s⁻¹. In addition, in assay [7], binding was put at a Kd of 0.255 nM, the off-rate (koff) worked out at 0.000844 s⁻¹ and the kon was determined as 3.32e+06 M⁻¹ s⁻¹.

B4: 5903 (antibody, V domains shown)
VH: QLQLQESGPGLVKPSETLSLTCTVSGGSISSSSYYWGWIRQPPGKGLEWIGMIYYSGSTWYNPSLKSRVTISVDTSKNQFSLKLSSVTAADTAVYYCARVGHGISYFDLWGRGTLVTVSS
VL: EIVLTQSPATLSLSPGERATLSCRASQSVSSYLAWYQQKPGQAPRLLIYDASKRATGIPARFSGSGSGTDFTLTISSLEPEDFAVYYCQQVYTWPPRTFGGGTKVEIK
Regarding B4, in assay [8], the “EC50, FRET short substrate” value came to 3.12 nM and the “EC50, HTRF long substrate” value stood at 1.38 nM. Further, in assay [9], the “IC50, Abeta x-40 in mouse cortical neurons” value stood at 1.63 nM; the “IC50, Abeta x-40 in mouse cortical neurons (5903*, second run)” value came out at 7.27 nM; the “maximal % inhibition of Abeta x-40” value is 72%.

B5: 6298 (antibody, V domains shown)
VH: QLQLQESGPGLVKPSETLSLTCTVSGGSISWSSYYWSWIRQPPGKGLEWIGNIYYSGSTYYNPSLKSRVTISVDTSKNQFSLKLSSVTAADTAVYYCARLGHGYNYFDLWGRGTLVTVSS
VL: EIVLTQSPATLSLSPGERATLSCRASQSVSSYLAWFQQKPGQAPRLLIYDASNRATGIPARFSGSGSGTDFTLTISSLEPEDFAVYYCQQVYVWPPRTFGGGTKVEIK
notes: anti-BACE1 IgG
As for B5, the Kd in [1] stood at 0.46 nM; in assay [2], 0.39 nM; in [3], 0.4 nM; in [4], 0.32 nM. Besides, the “IC50, Abeta x-40 in mouse cortical neurons” value in [9] is 1.95 nM. In assay [9], the “maximal % inhibition of Abeta x-40” value was 67%.

B6: 5990 (antibody, V domains shown)
VH: QLQLQESGPGLVKPSETLSLTCTVSGGSISWSSYYWSWIRQPPGKGLEWIGSIYRSGRTYYNPSLKSRVTISVDTSKNQFSLKLSSVTAADTAVYYCARVGHGINYFDLWGRGTLVTVSS
VL: EIVLTQSPATLSLSPGERATLSCRASRSVNSYLAWYQQKPGQAPRLLIYDASKRATGIPARFSGSGSGTDFTLTISSLEPEDFAVYYCQQVYTWPPRTFGGGTKVEIK
notes: anti-BACE1 IgG
B6: the dissociation constant (Kd) in assay [1] was below 0.18 nM; in assay [2] it was below 0.18 nM; in assay [3], below 0.23 nM; in assay [4], below 0.18 nM. The “IC50, Abeta x-40 in mouse cortical neurons” value in [9] was determined as 0.53 nM. For the same molecule, in assay [9], the “maximal % inhibition of Abeta x-40” value was 61%.

B7: 6294 (antibody, V domains shown)
VH: QLQLQESGPGLVKPSETLSLTCTVSGGSISSSSHYWGWIRQPPGKGLEWIGMIYYSGSTWYNPSLKSRVTISVDTSKNQFSLKLSSVTAADTAVYYCARVGHGVSYFDLWGRGTLVTVSS
VL: EIVLTQSPATLSLSPGERATLSCRASQSVSSYLAWYQQKPGQAPRLLIYDASKRATGIPARFSGSGSGTDFTLTISSLEPEDFAVYYCQQVYTWPPRTFGGGTKVEIK
notes: anti-BACE1 IgG
For the molecule B7, the dissociation constant Kd is below 0.3 nM in assay [1], below 0.3 nM in assay [2], below 0.34 nM in [3] and below 0.27 nM in assay [4]. In assay [9], the “IC50, Abeta x-40 in mouse cortical neurons” value is 3.53 nM. Besides, the “maximal % inhibition of Abeta x-40” value in assay [9] amounted to 59%.

B8: 6291 (antibody, V domains shown)
VH: QLQLQESGPGLVKPSETLSLTCTVSGGSISSSSYYWGWIRQPPGKGLEWIGMIYYSGSTWYNPSLKSRVTISVDTSKNQFSLKLSSVTAADTAVYYCARVGHGVSYFDLWGRGTLVTVSS
VL: EIVLTQSPATLSLSPGERATLSCRASQSVSSYLAWYQQKPGQAPRLLIYGASKRATGIPARFSGSGSGTDFTLTISSLEPEDFAVYYCQQVYTWPPRTFGGGTKVEIK
notes: anti-BACE1 IgG
For B8, the equilibrium dissociation constant (Kd) in [1] was below 0.26 nM; in assay [2], below 0.28 nM; in assay [3], below 0.3 nM; in assay [4] it was below 0.26 nM. Moreover, the “IC50, Abeta x-40 in mouse cortical neurons” value in assay [9] amounted to 1.41 nM. Further, the “maximal % inhibition of Abeta x-40” value in [9] worked out at 68%.

B9: 6285 (antibody, V domains shown)
VH: QLQLQESGPGLVKPSETLSLTCTVSGGSTSSSSYYWGWIRQPPGKGLEWIGSIYRSGSTYYNPSLKSRVTISVDTSKNQFSLKLSSVTAADTAVYYCARVGHGISYFDLWGRGTLVTVSS
VL: EIVLTQSPATLSLSPGERATLSCRASQSVSSYLAWYQQKPGQAPRLLIYDASSRATGIPARFSGSGSGTDFTLTISSLEPEDFAVYYCQQSLTWPPRTFGGGTKVEIK
notes: anti-BACE1 IgG
As to B9, the Kd in assay [1] was below 0.28 nM; in [2] it was 0.32 nM; in assay [3], 0.41 nM; in assay [4] it was 0.43 nM. Further, the “IC50, Abeta x-40 in mouse cortical neurons” value in assay [9] came out at 15.4 nM. In addition, the “maximal % inhibition of Abeta x-40” value in assay [9] is 57%.

B10: 6280 (antibody, V domains shown)
VH: QLQLQESGPGLVKPSETLSLTCTVSGGSTSSSSYYWGWIRQPPGKGLEWIGSIYRSGSTYYNPSFKSRVTISVDTSKNQFSLKLSSVTAADTAVYYCARVGHGISYFDLWGRGTLVTVSS
VL: EIVLTQSPATLSLSPGERATLSCRASQSVSSYLAWYQQKPGQAPRLLIYDASNRATGIPARFSGSGSGTDFTLTISSLEPEDFAVYYCQQSLTWPPRTFGGGTKVEIK
notes: anti-BACE1 IgG
For the molecule B10, the Kd in [1] is below 0.32 nM; in assay [2], below 0.32 nM; in assay [3] it was below 0.31 nM; in [4] it was 0.31 nM. Also, the “IC50, Abeta x-40 in mouse cortical neurons” value in assay [9] turned out to be 8.29 nM. The “maximal % inhibition of Abeta x-40” value in [9] was 65%.

B11: Hu15G11.v1.Fab (Fab, V domains shown)
VH: EVQLVQSGAEVKKPGASVKVSCKASGYTFTSYWMHWVRQAPGQRLEWMGEINPTNGRTNYIEKFKSRVTITRDTSASTAYMELSSLRSEDTAVYYCARGTRAYHYWGQGTMVTVSS
VL: DIQMTQSPSSLSASVGDRVTITCRASDNLYSNLAWYQQKPGKAPKLLLYDATNLADGVPSRFSGSGSGTDYTLTISSLQPEDFATYYCQHFWGTPLTFGQGTKVEIK
notes: Fab
Regarding B11, in assay [6], the affinity, expressed as Kd, was 73.9 nM; the off-rate constant (koff) was 0.0373 s⁻¹; the kon came to 505000 M⁻¹ s⁻¹. For the same molecule, in [7], the affinity, expressed as Kd, was 10.9 nM; the koff was 0.00699 s⁻¹; the kon is 638000 M⁻¹ s⁻¹.

B12: Hu15G11.v3.Fab (Fab, V domains shown)
VH: EVQLVQSGAEVKKPGASVKVSCKASGYTFTSYWMHWVRQAPGQRLEWMGEINPTNGRTNYIEKFKSRVTITRDTSASTAYMELSSLRSEDTAVYYCARGTRAYHYWGQGTMVTVSS
VL: DIQMTQSPSSLSASVGDRVTITCRASDNLYSNLAWYQQKPGKSPKLLVYDATNLADGVPSRFSGSGSGTDYTLTISSLQPEDFATYYCQHFWGTPLTFGQGTKVEIK
notes: Fab
In the case of B12, in assay [6], the Kd was 41.6 nM, the dissociation rate constant (koff) was 0.0201 s⁻¹ and the on-rate constant (kon) was 483000 M⁻¹ s⁻¹. Besides, in [7], binding was put at a Kd of 7.26 nM, the dissociation rate constant (koff) was 0.00466 s⁻¹ and the kon amounted to 642000 M⁻¹ s⁻¹.
